Residue numbers refer to the chain shown, from its start.
Assays:
[1] = target: T1, Epithelial Membrane Protein 2 (EMP2) (human, UniProt P54851 1-167); experiment: flow cytometry on SUM149 cells, nonlinear regression (FIG. 4)
T1 construct: Endogenous EMP2 on SUM149 or MDA-MB-468 breast cancer cells
T1 sequence: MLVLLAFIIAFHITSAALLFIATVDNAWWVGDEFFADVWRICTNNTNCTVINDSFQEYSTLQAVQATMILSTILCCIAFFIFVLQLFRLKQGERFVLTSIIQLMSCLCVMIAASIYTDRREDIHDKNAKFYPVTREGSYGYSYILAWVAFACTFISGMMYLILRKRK
Procedure: (§1) A comparison of anti-EMP2 Variant 1 and PG-101 binding affinity for EMP2 was carried out. […] PG-101 and Variant 1 binding to EMP2 was determined using SUM149 and flow cytometry. Variant 1 retains binding to EMP2 with improved affinity. Flow cytometry was used to determine the ability of both antibodies to bind to EMP2 on SUM149 cells.

[2] = target: T1, Epithelial Membrane Protein 2 (EMP2); experiment: flow cytometry on SUM149 cells (FIG. 4)
Procedure: as §1

[3] = target: T1, Epithelial Membrane Protein 2 (EMP2); experiment: flow cytometry on MDA-MB-468 cells (FIG. 2)

B1: PG-101 Parental (antibody, human IgG1, kappa, V domains shown)
VH: QVQLVQSGGGVVQPGRSLRLSCAASGFTFSSYAMHWVRQAPGKGLEWVAVISYDGSNKYYADSVKGRFTISRDNSKNTLYLQMNSLRAEDTAVYYCARDRRGRKSAGIDYWGQGTLVTVSS
VL: DIQMTQSPSSLSASVGDRVTITCQASQDISNYLNWYQQKPGKAPKLLIYAASSLQSGVPSRFSGSGSGTDFTLTISSLQPEDFATYYCLQDYNGWTFGQGTKVDIKR
notes: Full IgG1/kappa made in HEK293 cells; also called parental antibody
Which Kd [1] does the source give for B1 here?
Its Kd is 2.6 mg/L.

B2: PG-101 Variant 1 (antibody, human IgG1, kappa, V domains shown)
VH: B1 VH
VL: B1 VL with N93S
notes: Full IgG1/kappa made in HEK293 cells; also called anti-EMP2 Variant 1; PG-201
How did the “fold increase in binding against the parental antibody PG-101” value [2] turn out when B2 was run?
The value was > 2 fold.

B3: PG-101 Variant 2 (antibody, human IgG1, kappa, V domains shown)
VH: B1 VH
VL: B1 VL with G94L
notes: Full IgG1/kappa made in HEK293 cells
Does B3 bind [3]?
Result: binds

Reference: US20190040127A1 (University of California, published 2019)
